Test results reported in US20240293459A1 (published 2024).

Tests used:
Experiment in all cases: multimer staining
[1] = target: T1, SARS-CoV-2 NSP13 helicase; peptide NSP13-400 peptide on HLA-A*24:02 (human)
T1 peptide: VYIGDPAQL

[2] = target: T2, SARS-CoV-2 NSP13 helicase; peptide NSP13-242 peptide on HLA-A*02:01 (human)
T2 peptide: TLVPQEHYV

[3] = target: SARS-CoV-2 NSP13 helicase; peptide NSP13-448 peptide on HLA-A*01:01 (human)

B1: NSP13-400 TCR (TCR, V domains shown)
Valpha: RKEVEQDPGPFNVPEGATVAFNCTYSNSASQSFFWYRQDCRKEPKLLMSVYSSGNEDGRFTAQLNRASQYISLLIRDSKLSDSATYLCVVKDSWGKLQFGAGTQVVVTP
Vbeta: DARVTQTPRHKVTEMGQEVTMRCQPILGHNTVFWYRQTMMQGLELLAYFRNRAPLDDSGMPKDRFSAEMPDATLATLKIQPSEPRDSAVYFCASGPSGGWNTIYFGEGSWLTVV
Q: Does B1 bind [1]?
A: recognises

B2: NSP13-242 TCR (TCR, V domains shown)
Valpha: AQTVTQSQPEMSVQEAETVTLSCTYDTSENNYYLFWYKQPPSRQMILVIRQEAYKQQNATENRFSVNFQKAAKSFSLKISDSQLGDTAMYFCAFMNSNNARLMFGDGTQLVVKP
Vbeta: DAGITQSPRYKITETGRQVTLMCHQTWSHSYMFWYRQDLGHGLRLIYYSAAADITDKGEVPDGYVVSRSKTENFPLTLESATRSQTSVYFCASSPGSVPGGYTFGSGTRLTVV
Q: Does B2 bind [2]?
A: recognises

B3: NSP13-448 TCR (TCR, V domains shown)
Valpha: AQSVTQLGSHVSVSEGALVLLRCNYSSSVPPYLFWYVQYPNQGLQLLLKYTSAATLVKGINGFEAEFKKSETSFHLTKPSAHMSDAAEYFCAVSNSGGGADGLTFGKGTHLIIQP
Vbeta: DGGITQSPKYLFRKEGQNVTLSCEQNLNHDAMYWYRQDPGQGLRLIYYSQIVNDFQKGDIAEGYSVSREKKESFPLTVTSAQKNPTAFYLCASSIMAGGHGELFFGEGSRLTVL
Q: Does B3 bind [3]?
A: recognises
